Experimental findings from IntAct's records for PubMed 30496485 are described below.

B1: Coiled-coil-helix-coiled-coil-helix domain-containing protein 2 (Homo sapiens), Q9Y6H1 (parent)
chain: MPRGSRSRTSRMAPPASRAPQMRAAPRPAPVAQPPAAAPPSAVGSSAAAPRQPGLMAQMATTAAGVAVGSAVGHTLGHAITGGFSGGSNAEPARPDITYQEPQGTQPAQQQQPCLYEIKQFLECAQNQGDIKLCEGFNEVLKQCRLANGLA
partner: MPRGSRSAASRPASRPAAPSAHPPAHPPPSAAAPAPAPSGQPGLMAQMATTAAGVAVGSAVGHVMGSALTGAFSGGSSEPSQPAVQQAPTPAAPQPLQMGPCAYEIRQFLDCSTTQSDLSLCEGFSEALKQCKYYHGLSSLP

In the assay the parent is B1. The following applies: with chc10_human CHCHD10, Q8WYQ3.
Consider R145Q, for which the “effect of a mutation on the interaction” value is on record as “disrupting interaction strength”. Turning to T61I, the “effect of a mutation on the interaction” value is “disrupting interaction strength”.
